Experimental data as given in the supplement of paper PMC10567573.

B1: TRAF3IP2 (parent)
chain: YGHDYPRAAYQQVIQPALPGQPLP
B2: INTS3 (parent)
chain: AQLQALRQKEVDFCISLLRERFME

Variants of: B1
Assay: protein stability index of a GFP-peptide fusion (GPS, HEK-293T) (PSI 1-6); higher = more stable
Details: c terminus: a fixed tail appended
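Further: lentivirally expressed fusions sorted by FACS into six bins by GFP to DsRed ratio, PSI derived from sequencing read proportions per bin multiplied by bin number.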

Variant	protein stability index
YGHDYPRAAYQQVIQPALPGQSLP	1.8
YGHDYPRAAYQQVIQPALPGQTLP	2.33
YGHDYPRAAYQQVIQPALPGQLLP	1.39
YGHDYPRAAYQQVIQPALPGQHLP	1.71
YGHDYPRAAYQQVIQPALPGQNLP	2.11
YGHDYPRAAYAQVIQPALPGQPLP	2.75
YGHDYPRAAYTQVIQPALPGQPLP	3.14
YGHDYPRAAYCQVIQPALPGQPLP	3.05
YGHDYPRAAYFQVIQPALPGQPLP	3.98
YGHDYPRAAYPQVIQPALPGQPLP	1.69
YGHDYPRAAYWQVIQPALPGQPLP	1.94
YGHDYPRAAYVQVIQPALPGQPLP	2.31
YGHDYPRAAYKQVIQPALPGQPLP	2.24
YGHDYPRASYQQVIQPALPGQPLP	1.71
YGHDYPRAMYQQVIQPALPGQPLP	1.98
YGHDYPRAEYQQVIQPALPGQPLP	2.38
YGHDYPRAFYQQVIQPALPGQPLP	2.15
YGHDYCRAAYQQVIQPALPGQPLP	2.26
YGHDYIRAAYQQVIQPALPGQPLP	1.69
YGHDYSRAAYQQVIQPALPGQPLP	2.6
YGHDYWRAAYQQVIQPALPGQPLP	1.48
YGHDYMRAAYQQVIQPALPGQPLP	1.79
YGHDYFRAAYQQVIQPALPGQPLP	1.81
YGHDYNRAAYQQVIQPALPGQPLP	2.55
YGHDYERAAYQQVIQPALPGQPLP	2.82
YGHDYPRAAYQQVIQGALPGQPLP	1.54
YGHDYPRAAYQQVIQTALPGQPLP	2.27

Variant	protein stability index
YGHDYPRAAYQQVIQQALPGQPLP	2.03
YGHDYPRAAYQQVIQRALPGQPLP	1.71
YGHDYPRAAYQQVIAPALPGQPLP	1.74
YGHDYPRAAYQQVITPALPGQPLP	1.62
YGHDYPRAAYQQVIWPALPGQPLP	3.01
YGHDYPRAAYQQVIKPALPGQPLP	1.82
YGHDYPRAAYQQVIYPALPGQPLP	2.53
YGHDYPRAAYQQVIPPALPGQPLP	2.45
YGHDYPRAAYQQVIVPALPGQPLP	1.68
YGHDYPRAAYQQVIQPALPGQPVP	2.5
YGHDYPRAAYQQVIQPALPGQPQP	2.24
YGHDYPRAAYQQVIQPALPGQPCP	2.21
YGHDYPRAAYQQVIQPALPGQPPP	1.54
YGHDYPRAAYQQVIQPALPGQPDP	2.18
YGHDYPRAAYQQVIQPALPGQPHP	1.59
YGHDYPRAAYQQVIQPLLPGQPLP	3.12
YGHDYPRAAYQQVIQPQLPGQPLP	1.72
YGHDYPRAAYQQVIQPTLPGQPLP	2.62
YGHDYPRAAYQQVIQPAKPGQPLP	2.15
YGHDYPRAAYQQVIQPAVPGQPLP	1.65
YGHDYPRAAYQQVIQPAAPGQPLP	1.75
YGHDYPRAAYQQVIQPAHPGQPLP	1.9
YGHDYPRAAYQQVIQPAMPGQPLP	1.9
YGHDYPRAAYQQVIQPALPGQPLF	1.9
YGHDYPRAAYQQVIQPALPGQPLR	1.89
YGHDYPRAAYQQVIQPALPGQPLL	2.84

Variants of: B2
Assay: as above
Details: c terminus: a fixed tail appended

Variant	protein stability index
AQLQALRQKEVDFCISLLRERFMY	2.66
AQLQALRQKEVDFCISLLRERFMQ	1.4
AQLQALRQKEVDFCISLLRERFMR	3.34
AQLQALRQKEVDFCISLLRERFMT	1.77
AQLQALRQKEVDFCISLLRERFMP	1.31
AQLQALRQKEVDFCISLLRERFMI	2.7
AQLQALRQKEVDFCISLLRERFMM	4.47
AQLQALRQKEVDFCISLLRERFMG	1.92
AQLQALRQKEVDFCISLLRERFMN	2.72
AQLQALRQKEVDFCISLLRERFMV	2.95
AQLQALRQKEVDFCISLLRERFMA	3.89
AQLQALRQKEVDFCISLLRERFTE	1.85
AQLQALRQKEVDFCISLLRERFRE	2.91
AQLQALRQKEVDFCISLLRERFSE	1.42
AQLQALRQKEVDFCISLLRERFAE	2.78
AQLQALRQKEVDFCISLLRERFHE	1.96
AQLQALRQKEVDFCISLLRERFKE	2.84
AQLQALRQKEVDFCISLLRERFGE	1.9
AQLQALRQKEVDFCISLLRERFPE	1.79
AQLQALRQKEVDFCISLLRERFDE	1.95
AQLQALRQKEVDFCISLLRERFVE	5.11

Variant	protein stability index
AQLQALRQKEVDFCISLLRERFQE	1.03
AQLQALRQKEVDFCISLLRERFEE	1.46
AQLQALRQKEVDFCISLLRERFIE	2.46
AQLQALRQKEVDFCISLLRERFNE	2.55
AQLQALRQKEVDFCISLLRERFLE	2.29
AQLQALRQKEVDFCISLLRERDME	2.24
AQLQALRQKEVDFCISLLRERCME	1.19
AQLQALRQKEVDFCISLLRERKME	1.92
AQLQALRQKEVDFCISLLRERSME	1.31
AQLQALRQKEVDFCISLLREREME	2.16
AQLQALRQKEVDFCISLLRERMME	3.62
AQLQALRQKEVDFCISLLRERTME	1.97
AQLQALRQKEVDFCISLLRERGME	1.17
AQLQALRQKEVDFCISLLRERQME	1.98
AQLQALRQKEVDFCISLLRERNME	1.69
AQLQALRQKEVDFCISLLRERPME	1.67
AQLQALRQKEVDFCISLLRERRME	2.1
AQLQALRQKEVDFCISLLRERHME	1.18
AQLQALRQKEVDFCISLLRERYME	2.21
AQLQALRQKEVDFCISLLRERWME	3.21
